According to patent publication US20250197467A1:
Where a chain is given by its changes, count along the chain named.

B1: C316 + Matriptase (ligand)
chain: MAAEPVEDNSINFVAMKFIDNTLYFIAEDDENLESDSGRVANLVGYFGKLKSKLSIIRNLNDQVLFIDQGNRPLFEDMTDSDARDNAPRTIFIISMYADSQPRGMAVAISVKCEKISTLSAENKIISFKEMNPPDNIKDTKSDIIFFQRSVPGHDNKMQFESSSYEGYFLAAEKERDLFKLILKKEDELGDRSIMFTVQNED
B2: C318 + Matriptase (ligand)
chain: MAAEPVEDNSINFVAMKFIDNTLYFIAEDDENLESDSGRVANYFGKLKSKLSIIRNLNDQVLFIDQGNRPLFEDMTDSDARDNAPRTIFIISMYADSQPRGMAVAISVKCEKISTLSAENKIISFKEMNPPDNIKDTKSDIIFFQRSVPGHDNKMQFESSSYEGYFLAAEKERDLFKLILKKEDELGDRSIMFTVQNED
B3: C323 (ligand)
chain: MAAEPVEDNSINFVAMKFIDNTLYFIAEDDENLESDRGRRVANLVGGSGYFGKLKSKLSIIRNLNDQVLFIDQGNRPLFEDMTDSDARDNAPRTIFIISMYADSQPRGMAVAISVKCEKISTLSAENKIISFKEMNPPDNIKDTKSDIIFFQRSVPGHDNKMQFESSSYEGYFLAAEKERDLFKLILKKEDELGDRSIMFTVQNED
B4: C324 + MMP9 (ligand)
chain: YFGKLKSKLSIIRNLNDQVLFIDQGNRPLFEDMTDSDARDNAPRTIFIISMYADSQPRGMAVAISVKCEKISTLSAENKIISFKEMNPPDNIKDTKSDIIFFQRSVPGHDNKMQFESSSYEGYFLAAEKERDLFKLILKKEDELGDRSIMFTVQNED
B5: C325 (ligand)
chain: B3 chain with V41P, A42L, N43G, V45A
B6: C325 + MMP9 (ligand)
chain: LAGGSGYFGKLKSKLSIIRNLNDQVLFIDQGNRPLFEDMTDSDARDNAPRTIFIISMYADSQPRGMAVAISVKCEKISTLSAENKIISFKEMNPPDNIKDTKSDIIFFQRSVPGHDNKMQFESSSYEGYFLAAEKERDLFKLILKKEDELGDRSIMFTVQNED
B7: C326 (ligand)
chain: MAAEPVEDNSINFVAMKFIDNTLYFIAEDDENLESDRGRRVANPLGLAGSGYFGKLKSKLSIIRNLNDQVLFIDQGNRPLFEDMTDSDARDNAPRTIFIISMYADSQPRGMAVAISVKCEKISTLSAENKIISFKEMNPPDNIKDTKSDIIFFQRSVPGHDNKMQFESSSYEGYFLAAEKERDLFKLILKKEDELGDRSIMFTVQNED
B8: C326 + MMP9 (ligand)
chain: LAGSGYFGKLKSKLSIIRNLNDQVLFIDQGNRPLFEDMTDSDARDNAPRTIFIISMYADSQPRGMAVAISVKCEKISTLSAENKIISFKEMNPPDNIKDTKSDIIFFQRSVPGHDNKMQFESSSYEGYFLAAEKERDLFKLILKKEDELGDRSIMFTVQNED

Target: His-tagged human IL-18BP (human) (UniProt O95998)
Test: AlphaLISA of free IL-18BP

His-tagged human IL-18BP (human), sequence (O95998 31-194): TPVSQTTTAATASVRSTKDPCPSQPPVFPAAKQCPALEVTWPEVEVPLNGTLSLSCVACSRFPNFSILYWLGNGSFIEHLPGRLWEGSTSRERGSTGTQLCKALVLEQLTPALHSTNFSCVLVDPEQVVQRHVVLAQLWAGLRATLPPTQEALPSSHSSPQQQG

Binder | Kd [nM]
B1 | 723
B2 | 586
B3 | 8550
B4 | 36.5
B5 | 1880
B6 | 158
B7 | 2100
B8 | 139
